The text below walks through data of PMC8259413.

The data set concerns the target DNA polymerase beta (Pol β) (rat, UniProt P06766 1-335). The data set can be described thus: NMR chemical shift titration.

B1: 20-mer single-nucleotide gapped DNA (templating G) (dsDNA)
DNA 1: CGACCGACGGCGCATCAGCC
DNA 2: GGCTGATGCGC
DNA 3: GTCGGTCG
modifications: 5'-phosphate on downstream strand
Consider B1, for which the binding result is given as “binds”.
